Earlier results as cited in PMC6828933.

Target: eNOS (Homo sapiens) (UniProt P29474)
Chain of UniProt P29474 (P29474 2-1203): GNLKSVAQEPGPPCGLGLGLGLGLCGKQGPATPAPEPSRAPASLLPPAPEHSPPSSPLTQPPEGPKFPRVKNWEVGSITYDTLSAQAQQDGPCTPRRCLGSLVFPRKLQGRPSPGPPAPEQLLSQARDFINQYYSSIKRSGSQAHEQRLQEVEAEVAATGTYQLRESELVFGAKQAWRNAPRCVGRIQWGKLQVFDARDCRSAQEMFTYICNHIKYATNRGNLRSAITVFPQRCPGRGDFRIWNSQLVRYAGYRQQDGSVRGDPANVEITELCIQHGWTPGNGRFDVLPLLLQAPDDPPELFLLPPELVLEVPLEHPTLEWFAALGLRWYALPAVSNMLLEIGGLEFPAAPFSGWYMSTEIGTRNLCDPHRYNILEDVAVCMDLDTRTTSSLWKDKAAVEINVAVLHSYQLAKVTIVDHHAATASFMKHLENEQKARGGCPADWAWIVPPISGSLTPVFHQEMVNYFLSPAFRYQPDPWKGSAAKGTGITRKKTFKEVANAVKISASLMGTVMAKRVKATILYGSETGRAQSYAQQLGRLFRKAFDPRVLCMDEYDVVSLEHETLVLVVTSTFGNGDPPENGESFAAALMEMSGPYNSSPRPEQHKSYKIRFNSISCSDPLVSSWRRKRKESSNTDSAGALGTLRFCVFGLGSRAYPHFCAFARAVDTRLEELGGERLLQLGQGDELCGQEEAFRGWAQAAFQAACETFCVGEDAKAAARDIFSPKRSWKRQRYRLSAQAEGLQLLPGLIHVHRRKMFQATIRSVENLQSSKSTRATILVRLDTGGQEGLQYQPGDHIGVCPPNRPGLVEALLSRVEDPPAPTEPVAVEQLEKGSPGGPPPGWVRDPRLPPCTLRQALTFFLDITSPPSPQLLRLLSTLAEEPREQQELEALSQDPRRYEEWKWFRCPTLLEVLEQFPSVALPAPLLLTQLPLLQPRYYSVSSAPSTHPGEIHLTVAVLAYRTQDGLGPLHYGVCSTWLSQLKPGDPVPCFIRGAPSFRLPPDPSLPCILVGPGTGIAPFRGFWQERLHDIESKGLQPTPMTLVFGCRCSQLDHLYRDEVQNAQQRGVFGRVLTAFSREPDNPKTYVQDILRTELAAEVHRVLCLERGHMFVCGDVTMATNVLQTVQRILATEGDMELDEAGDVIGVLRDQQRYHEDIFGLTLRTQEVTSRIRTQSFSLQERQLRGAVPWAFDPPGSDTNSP

Caveolin-1 90-99 (from UniProt Q03135)
Kd: 0.042 µM
